± gives the uncertainty stated by the source.

The results in this text go back to the supplement of paper PMC12042874.

The nature of this data set: amyloid nucleation score (Sup35N fusion, yeast selection) (log enrichment); library NNK1; higher = more nucleation; inactive = no reads after selection. Put shortly: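 Psi-negative yeast expressed Sup35N fused to peptides of 20 random codons. They were induced 24 hours with 100 μM copper sulfate, grown 7 days at 30°C without adenine and uracil, and their plasmid inserts from input and output were Illumina-sequenced. The nucleation score is the DiMSum log enrichment of output over input reads, centred on the mode score of non-aggregating sequences. Sequences with under 100 input reads were excluded.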
For the substance HSYTRIE, the amyloid nucleation score is -0.413 ± 0.24.
Under HTEEGKSWFMRGSSVWFRVG stands 0.341 ± 0.18; under HTHSGVYC, -0.468 ± 0.5; under HVFVLLPSKFADLLKKPVLL, -0.894 ± 1.7.
Turning to HVGHCLLLKFQSIWDFWCVC, the amyloid nucleation score came out at 0.237 ± 0.69.
HVKACLVVASYP yielded an amyloid nucleation score of 0.94 ± 0.5.
With HVVAALWCARNFWGVLNVCC, the amyloid nucleation score is -0.09 ± 0.53.
The substance HWIMAMFMSPPANTHDEAEI came in with an amyloid nucleation score of 2.45 ± 0.15.
Turning to HWSMCRTGFWSLYKMDVTQT, the amyloid nucleation score came out at 0.833 ± 0.7.
In turn, HWTMYLVQLDSDSAIFFGHM returned an amyloid nucleation score of 2.52 ± 0.15.
Take HWTPC: the amyloid nucleation score entry was “inactive”.
Take HYDSMTAL: the amyloid nucleation score was determined as 0.491 ± 0.62.
In the case of HYEVYAARVPNHHAKDIFWV, the amyloid nucleation score was -0.024 ± 0.93.
In turn, HYIFIRECYCIYLSIAFSQT had an amyloid nucleation score of 0.33 ± 0.36.
In turn, HYSFFE had an amyloid nucleation score of -0.806 ± 0.8.
In turn, HYWDYAISRIR showed an amyloid nucleation score of -1.94 ± 2.4.
IAFTVWADWYLPKLGLIREL: the amyloid nucleation score was 0.508 ± 0.74.
The substance IAHFELMRHNVHLKWVESWL registered an amyloid nucleation score of 0.911 ± 0.27.
IANCQAGWGCRQA came in with an amyloid nucleation score of 0.315 ± 0.32.
The substance IAVNSYASVDTYTSLLIRWL came in with an amyloid nucleation score of 0.993 ± 0.36.
Under IAVSFSVVL stands 5.49 ± 0.056; under ICDYPIVMRKYPVS, -1.68 ± 1.4.
Substance ICIDCYQGC yielded an amyloid nucleation score of -0.721 ± 1.9.
The substance ICKDKHAIV gave an amyloid nucleation score of -0.282 ± 0.37.
Take ICNFERILRNMVFAWWYKID: the amyloid nucleation score amounted to 0.621 ± 0.42.
Substance ICNQCNNSGTQLYCIKLYMR had an amyloid nucleation score of 6.099 ± 0.045.
Under ICSIITPRPGFPTVLRSMKK stands 0.846 ± 0.81; under ICTEIRRGLHE, 1.11 ± 0.71; under ICVSSGSVIIIVTYFAKCPA, 0.484 ± 0.24.
Under ICWLC stands 6.912 ± 0.055; under ICYTLTMVMAGVEAGGATLV, 0.294 ± 0.95; under IDCIWGLCNWFHSLVMCVHS, “inactive”.
Under IDGLNNYTSYNGTR stands -0.219 ± 0.62.
On to IDHSNTIFMSQCRRLSVPE, for which the amyloid nucleation score was -0.889 ± 1.7.
Substance IDNMGT gave an amyloid nucleation score of 2.4 ± 0.12.
As to IDWSVHL, the amyloid nucleation score result is “inactive”.
In turn, IDWTVDKRSKLMYRGKGSVA showed an amyloid nucleation score of -0.306 ± 0.97.
IEIGSSF came in with an amyloid nucleation score of 0.118 ± 0.6.
Under IELSILSGRRDL stands -0.406 ± 0.2; under IEQMCTHVNYFGD, -0.548 ± 0.86; under IEWRVKLRLLRCQYID, -0.507 ± 0.34.
IFFCWTMFRS: the amyloid nucleation score stood at 1.28 ± 0.21.
As to IFGCRLLYCS, the amyloid nucleation score amounted to 0.402 ± 1.4.
Consider IFGFVWDPKTNYMTGLFASI, for which the amyloid nucleation score was -0.231 ± 0.5.
Under IFHGRNYSFSS stands -0.422 ± 0.45; under IFMSRWG, 2.78 ± 0.14.
Substance IFNCVVLFSNTFMGYRFPFH returned an amyloid nucleation score of 6.273 ± 0.045.
Regarding IFNSNLLLTATRGDSVIWPY, the amyloid nucleation score amounted to 3.26 ± 0.14.
To IFQPFFAYSGKLVWPFKRDP belongs 4.01 ± 0.081; to IFSNQLYVERIVLDENKALL, 3.62 ± 0.094; to IFYLTSVFVFSLLKFMTCER, -1.17 ± 2.4.
On to IFYSLFEDTYGGYVLNTAYL, for which the amyloid nucleation score result was “inactive”.
Regarding IGAHRNRIWIWYCPVVPNAT, the amyloid nucleation score was determined as 3.1 ± 0.2.
To IGARQLSFLHSIRTREMRVQ belongs “inactive”.
IGDGSFYGLRQRQEARGKRA: the amyloid nucleation score is -0.437 ± 0.73.
To IGFFPQDSYGFGLRTEINGL belongs 0.145 ± 0.69.
With IGGCLETCCSLGDKLGRRKR, the amyloid nucleation score was found to be 1.07 ± 0.66.
To IGLAICNLLFSTGWGYQPLW belongs 5.75 ± 0.083; to IGLVCCCSSFEFMRWY, 2.49 ± 0.47; to IGMVSVSC, 0.037 ± 1.2.
Under IGNPMWCQWSAL stands 0.721 ± 0.74.
For IGRMIRVCYVVCYEVDMTTS, the amyloid nucleation score amounted to 0.725 ± 0.47.
Consider IGSFDYGSNLGQIYGHNMLK, for which the amyloid nucleation score was -0.685 ± 0.6.
To IGSLGMCLQCYGAGV belongs 0.147 ± 1.2.
Under IGSMNCRLLVTWKMVWLVPH stands -0.187 ± 0.5.
On to IGSVDALKVVDVAMCVPT, for which the amyloid nucleation score is 2.34 ± 0.54.
Turning to IGTGCSDILRIWRECVNLRG, the amyloid nucleation score worked out at 1.5 ± 0.56.
IGVSVTPLLLKNKRPVTDVM showed an amyloid nucleation score of 1.07 ± 0.84.
Consider IGVVVWRPNLILRKEYLWRV, for which the amyloid nucleation score was -0.858 ± 2.1.
The substance IGVYSKNAQKGIRRDWCLWN showed an amyloid nucleation score of 1.33 ± 0.62.
In turn, IGWFHHFHHATLHRAISVFL returned an amyloid nucleation score of 0.633 ± 0.42.
Under IGWNFAFVSGILVW stands “inactive”; under IGYRCIVLS, 1.24 ± 0.45.
In the case of IHNFIVSRDRMTGENGSGCM, the amyloid nucleation score is -0.944 ± 0.41.
Substance IHWFVFYFLKKFCYYRSYAR showed an amyloid nucleation score of 0.389 ± 0.4.
In the case of IIAIPHLTLSWTNLSMGQG, the amyloid nucleation score came out at 3.76 ± 0.1.
Substance IICLVNMDLCKSR came in with an amyloid nucleation score of 3.9 ± 0.16.
As to IIGSIGYVKVSCDQAVRFQL, the amyloid nucleation score was 5.01 ± 0.076.
In the case of IIINGVL, the amyloid nucleation score was found to be 0.029 ± 0.62.
To IILCNRPMSYLRYNGARFLA belongs 0.948 ± 0.36; to IILGL, 0.006 ± 0.73; to IIRKPGLTRTCHTVLTAASE, 0.511 ± 0.91.
IIRRGSRSFYIFMVTFKRRN came in with an amyloid nucleation score of 0.996 ± 0.52.
In the case of IISMLFAFIGQSIIVQVVRC, the amyloid nucleation score is 0.316 ± 0.26.
In turn, IISVMTIARGNPVCTHIKYG gave an amyloid nucleation score of 0.169 ± 0.29.
Take IIVGEFENLYNSAINVK: the amyloid nucleation score result was “inactive”.
As for IKEFLKACNHHEPMPGNLMR, the amyloid nucleation score is -0.005 ± 0.54.
In turn, IKHFGISTR yielded an amyloid nucleation score of 0.17 ± 0.79.
To IKISHACATMRQSGGFYVLK belongs -0.511 ± 0.39.
Turning to IKLFARGGI, the amyloid nucleation score came to 0.39 ± 0.59.
With IKMDFTFICIRVRGV, the amyloid nucleation score was 0.343 ± 1.4.
To IKSHNMYYGRRRGVFLGPDR belongs -0.075 ± 0.44; to IKTMISQY, -0.406 ± 0.25; to IKWLGLTSHRWIYTSGLRIL, “inactive”.
For IKWSGVVASGGDNPLTDHSR, the amyloid nucleation score is -0.05 ± 0.71.
For the substance IKYFVLAWTSDPLTYVTVTS, the amyloid nucleation score was determined as 0.953 ± 0.46.
As for IKYINDITFLVLPYWFI, the amyloid nucleation score came out at 3.6 ± 0.072.
Regarding ILADIVDATWNFKSSISFLG, the amyloid nucleation score turned out to be 1.74 ± 0.16.
Substance ILATMQFLCQMGSERNQARA came in with an amyloid nucleation score of 0.454 ± 0.26.
ILAWAMGI displayed an amyloid nucleation score of 0.777 ± 0.78.
ILCLKTDGLGDESRGVSEAG displayed an amyloid nucleation score of 0.27 ± 0.75.
To ILEFDDKKVLNLVEGKLLGA belongs -0.383 ± 1.7; to ILELYYYASRFLN, 0.45 ± 0.57; to ILFCYLYFMLNNFT, 1.07 ± 0.14.
Substance ILIAKCSLPCYMKRGNAPCL showed an amyloid nucleation score of 1.37 ± 0.59.
Under ILLMFYRCSKDILLIRSTDF stands 0.059 ± 0.27; under ILLYVICQVVTTV, 1.64 ± 0.34.
Take ILPLLLMWFTYCDDV: the amyloid nucleation score is 2.23 ± 0.6.
For the substance ILRSGNVCYHNTVRWVLSYR, the amyloid nucleation score worked out at 0.225 ± 0.21.
On to ILSRVCVRGCIHLPSRMCRS, for which the amyloid nucleation score result is “inactive”.
The substance ILSYVTVDPAKVNYIFREWF gave an amyloid nucleation score of -1.03 ± 0.76.
ILVYERTYFRNLQWIIRWFS displayed an amyloid nucleation score of -0.356 ± 0.22.
Substance ILYNLGTWFRLC displayed an amyloid nucleation score of -0.496 ± 0.61.
Under IMPDNDWKSCILIFSRSILF stands 2.59 ± 0.15; under IMRRVLAFSCN, -0.538 ± 0.34.
As for IMYSQNEGDMYESSFV, the amyloid nucleation score was -0.551 ± 0.35.
For the substance INDESFWDCIVPNRMKGFSG, the amyloid nucleation score was 0.325 ± 0.42.
The substance INELNTLLGI had an amyloid nucleation score of 0.498 ± 0.97.
Turning to INFVLMIRMIVSFMNIGRIG, the amyloid nucleation score was -0.527 ± 1.6.
For INHLKGVSRYSVPVLLGFIA, the amyloid nucleation score came out at 0.124 ± 0.45.
On to INLCAFGLPLVKVLHWLLYL, for which the amyloid nucleation score result is “inactive”.
Under INLGLVGSRFGSNMERLYGG stands 0.503 ± 1.1; under INNSDSCVMLMMNRVFCHGG, 6.085 ± 0.048; under INVPIWGNLQDWLVI, -0.924 ± 0.52.
INYNWCQTRG showed an amyloid nucleation score of -0.867 ± 0.39.
Regarding INYTTWHYASCFRFT, the amyloid nucleation score stood at 2.82 ± 0.14.
Substance IPNGNVSSSLSVGIMPVAFR had an amyloid nucleation score of 4.36 ± 0.092.
IPPNSWMKSRNCTKLTARVY had an amyloid nucleation score of -0.312 ± 1.4.
In turn, IPTLRSPVNRWPRITMKVWL yielded an amyloid nucleation score of -0.161 ± 0.62.
In the case of IPVILSSSNYSDSKPGL, the amyloid nucleation score worked out at 0.964 ± 0.6.
With IQALDLDTVFDCC, the amyloid nucleation score stood at 6.45 ± 0.088.
In turn, IQQTLPQRYMYNEIRPCSSL registered an amyloid nucleation score of 0.502 ± 0.19.
To IQYDSFNVRFDIATAIDYFA belongs -0.12 ± 0.67.
On to IRAQGHNYWALMRVAEWVVG, for which the amyloid nucleation score is 1.75 ± 0.42.
Under IRCDKLISNSNMLGDKLTL stands “inactive”; under IRDMFVSGSQFFLKHMLSRG, 0.436 ± 0.78.
IRDNDDLLWMEGRSWKWSRR had an amyloid nucleation score of 0.27 ± 0.29.
Substance IRGNSKGMGQREFISPFPAR yielded an amyloid nucleation score of -1 ± 0.35.
In turn, IRGVKSYLSLITLFSKTHLV had an amyloid nucleation score of -0.833 ± 0.39.
Regarding IRGYGAWGQWGSYRFRESES, the amyloid nucleation score is 1.6 ± 0.17.
